Measurements from patent publication US20190119357A1, “MESSENGER RIBONUCLEIC ACIDS FOR THE PRODUCTION OF INTRACELLULAR BINDING POLYPEPTIDES AND METHODS OF USE THEREOF” (ModernaTX, Inc., priority 2015, published 2019).
Entries after “also recorded” stand apart in the source; their conditions may differ.

Experiments:
HeLa cells [1] = assay: PARP-1 cleavage by SDS-PAGE and Western blotting after transfection of mRNAs encoding SQT-BH3 constructs; type: cell-based
Excerpt: The cleavage of PARP-1 was detected by the appearance of a faster-migrating band and concomitant loss of the full-length band by SDS-PAGE and Western blotting. Western blotting with anti-actin antibodies served as a loading control.

BCL-XL = molecular target: T1, BCL-XL (Homo sapiens, UniProt Q07817); assay: Co-immunoprecipitation after mRNA transfection; type: binding; settings: within two hours after mRNA transfection
T1 construct: endogenous in cells; host or cells: cells transfected with SQT-BH3 mRNA (HeLa by context)

BCL-2 = molecular target: T2, BCL-2 (Homo sapiens, UniProt P10415); assay: Co-immunoprecipitation after mRNA transfection; type: binding; settings: within two hours after mRNA transfection
T2 construct: endogenous in cells; host or cells: cells transfected with SQT-BH3 mRNA (HeLa by context)

MCL-1 = molecular target: T3, MCL-1 (Homo sapiens, UniProt Q07820); assay: Co-immunoprecipitation in lysates of transfected HeLa cells; type: binding; settings: lysates of HeLa cells transfected with mRNAs
T3 construct: performed in lysates of HeLa cells transfected with mRNAs encoding SQT-BH3 constructs; endogenous in cells; host or cells: HeLa

[2] = test system: human melanoma cells (A375); assay: Cell death after mRNA transfection; type: cell-based
[3] = test system: human hepatocellular carcinoma (Hep G2) cells; assay: Cell death and morphology after mRNA transfection; type: cell-based
Excerpt: A representative graph of the apoptotic ability of the SQT-BH3 constructs is shown in FIG. 2, showing the cell killing capacity of the SQT-BH3 constructs in Hep G2 cells.

Hep3B cells [4] = assay: Cell death by YOYO-3 with MC3-formulated LNPs; type: cell-based; settings: for apoptosis and cell death (YOYO-3): relatively high concentration
Procedure: The efficacy of mRNAs encoding SQT-BH3 constructs in inducing cell death was tested both in hepatocellular carcinoma cell lines as well as in primary hepatocytes using lipid nanoparticle (LNP)-formulated constructs. Hep3B cells were treated with varying doses (0.78 ng to 50 ng) of MC3-formulated LNPs in the presence of YOYO-3 (Life Technologies), a DNA dye that is taken up preferentially by dead cells that is used to measure the extent of cell death. MC3 lipid nanoparticles included MC3 50%, DSPC 10%, Cholesterol 38.5%, PEG-DMG 1.5%, N:P ˜5.5.

HepG2 cells = assay: Cell death by YOYO3 with MC3 LNPs; type: cell-based
primary hepatocytes [5] = assay: Apoptosis induction by MC3 LNP-formulated mRNAs in primary hepatocytes cultured in vitro; type: cell-based; settings: for PARP-1 cleavage: LNPs
HeLa cells [6] = assay: Efficiency of cell killing at low mRNA dose; type: cell-based; settings: approximately 0.78 ng mRNA
Hep3B cells [7] = assay: Efficiency of cell killing at low mRNA dose and dose-response; type: cell-based
HeLa cells [8] = assay: Long-term live cell imaging of GFP-positive cells after mRNA transfection; type: cell-based
Hep3B cells [9] = assay: Sorafenib combination, YOYO-3 apoptosis on IncuCyte ZOOM; type: cell-based
Procedure: To determine the effect of SQT-BH3 constructs in combination with the protein tyrosine kinase inhibitor Sorafenib on liver cells, 20,000 Hep3B cells/well in a 96 well plate were treated with increasing amounts of sorafenib tosylate (Selleck Chemicals) and transfected with LNPs containing SQT-PUMA-BH3 (68 pM) or SQT-Bad-BH3 (550pM).

[10] = test system: primary mouse hepatocytes; assay: Sorafenib combination in primary mouse hepatocytes; type: cell-based; settings: SQT-PUMA-BH3 205 pM or 1100 pM, SQT-Bad-BH3 549 pM or 1100 pM, sorafenib 0-10 uM
Procedure: Similar combination experiments were performed with primary mouse hepatocytes, treated with SQT-PUMA-BH3 (205 pM or 1100 pM) or SQT-Bad-BH3 (549 pM or 1100 pM) in combination with sorafenib (0-10 μM). […] Thus, normal primary liver cells are spared by the combination treatment, indicating the combination treatment can selectively kill liver cancer cells over normal liver cells.

Hep3B cells [11] = assay: SQT-BH3 in combination with siMCL1 or sorafenib, YOYO-3; type: cell-based; settings: 10 uM sorafenib tosylate, 24 hours after treatment
primary hepatocytes [12] = settings: 10uM sorafenib tosylate, 24 hours after treatment
Procedure: Controls were an empty SQT construct (“SQT-dummy”), a non-targeting siRNA and PBS. For treatment of Hep3B cells, 20,000 Hep3B cells/well per plated in 96-well plates. At Day 1, some wells were transfected with siMCL1 (Dharmacon, ON-TARGETplus Human MCL1 (4170) siRNA-SMARTpool, # L-004501-00-0005) or non-targeting siRNA (ON-TARGETplus Non-targeting Control Pool, # D-001810-10-05). […] 24 hours after treatment, YOYO®-3 iodide (Life Technologies) viability dye was added to each well and cell death was measured on an IncuCyte ZOOM® using YOYO-3 fluorescence as a readout (=“Apoptosis”). For treatment of primary hepatocytes, 18,000 mouse hepatocytes (Gibco) were seeded in each well of a 96-well plate. At Day 1, some wells were transfected with siMCL1 (Dharmacon, SMARTpool: ON-TARGETplus Mc11 siRNA, # L-062229-00-0005) or non-targeting siRNA (ON-TARGETplus Non-targeting Control Pool, # D-001810-10-05). […] 24 hours after treatment, Caspase 3/7 reagent (EssenBio) apoptosis dye was added to each well and cell death was measured on an IncuCyte ZOOM® using the caspase 3/7 reagent fluorescence as a readout (=“Apoptosis”).

Hep3B cells [13] = assay: Anti-MCL1 mmRNA construct combined with SQT-PUMA-BH3, YOYO-3; type: cell-based; settings: 50 ng anti-MCL1 mRNA, 1.6 ng SQT-PUMA-BH3, L2K, 48 hours
Procedure: The anti-MCL1 mmRNA construct was tested for synergistic killing when combined with SQT-PUMA-BH3 in Hep3B cells. 20,000 Hep3B cells were seeded per well in 96-well plates. Each well was transfected with (a) 1.6 ng SQT-empty (“SQT-dummy”) or SQT-PUMA-BH3; and (b) 50 ng or 12.5 ng anti-MCL1 mRNA. Transfections of mRNA were done with Lipofectamine 2000 (L2K). After 48 hours, apoptosis measurements performed using YOYO-3 viability dye in an Incucyte instrument.

T2 sequence (P10415 whole entry): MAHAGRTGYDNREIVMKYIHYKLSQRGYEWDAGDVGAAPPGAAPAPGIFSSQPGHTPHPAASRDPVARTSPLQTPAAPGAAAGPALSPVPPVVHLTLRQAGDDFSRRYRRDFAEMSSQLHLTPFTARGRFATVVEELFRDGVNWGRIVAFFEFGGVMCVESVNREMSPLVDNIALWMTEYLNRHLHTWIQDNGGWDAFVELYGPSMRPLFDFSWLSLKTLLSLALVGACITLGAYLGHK
T1 sequence (Q07817 whole entry): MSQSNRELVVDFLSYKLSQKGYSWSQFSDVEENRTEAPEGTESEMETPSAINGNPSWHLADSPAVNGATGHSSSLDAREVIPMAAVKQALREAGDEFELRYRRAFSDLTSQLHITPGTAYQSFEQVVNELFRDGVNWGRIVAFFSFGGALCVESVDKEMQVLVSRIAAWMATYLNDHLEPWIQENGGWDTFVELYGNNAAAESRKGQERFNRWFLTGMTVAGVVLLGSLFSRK
T3 sequence (Q07820 whole entry): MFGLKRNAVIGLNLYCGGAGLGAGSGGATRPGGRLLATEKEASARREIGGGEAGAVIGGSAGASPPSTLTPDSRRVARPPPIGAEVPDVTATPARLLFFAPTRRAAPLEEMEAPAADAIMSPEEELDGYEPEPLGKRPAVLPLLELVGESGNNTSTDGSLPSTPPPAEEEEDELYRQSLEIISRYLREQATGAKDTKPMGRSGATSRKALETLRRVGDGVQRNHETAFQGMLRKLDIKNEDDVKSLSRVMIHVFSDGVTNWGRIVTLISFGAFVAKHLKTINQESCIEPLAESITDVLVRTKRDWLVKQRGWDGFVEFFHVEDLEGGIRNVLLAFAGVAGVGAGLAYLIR

B1: SQT-Bim-BH3: mRNA (SEQ ID NO: 50, FLAG) encoding SQT scaffold with Bim BH3 domain in N-terminus (nucleic acid)
chain: ATGATCCCAAGAGACATGCGCCCCGAAATTTGGATCGCCCAGGAGCTCAGACGCATCGGAGATGAATTCAACGCATACTACGCTCGGCGGGGACTCTCAGAAGCGAAGCCTGCCACCCCCGAAATCCAGGAAATCGTCGACAAGGTCAAGCCGCAGCTTGAGGAAAAGACCAACGAGACTTACGGAAAACTGGAGGCCGTGCAGTATAAGACCCAAGTGTTGGCCTCCACCAACTACTACATTAAGGTCCGCGCCGGCGATAACAAGTACATGCACCTGAAGGTGTTCAATGGTCCTCCGGGACAGAACGCGGACAGGGTGCTGACTGGCTACCAAGTGGACAAGAACAAGGACGACGAGCTGACGGGCTTCGACTACAAGGATGATGATGACAAA
modifications: FLAG tag; Synthetic SQT-BIM-BH3 mRNA sequence with FLAG epitope tag
cell death of transfected cells (HeLa cells [1]; from anti-FLAG and anti-GFP Western blotting): underwent cell death | interaction with BCL-XL by co-immunoprecipitation (BCL-XL): able interact | interaction with BCL-2 by co-immunoprecipitation (BCL-2): to a lesser extent | co-immunoprecipitation of MCL-1 (MCL-1): able to co-immunoprecipitate | cell death [2]: caused rapid cell death almost immediately following transfection | cell death [3]: caused rapid cell death almost immediately following transfection; also recorded: underwent cell death almost immediately following transfection | cell morphology [3]: rounded-up cell morphology that is characteristic of apoptotic cells | cell killing (YOYO-3) (Hep3B cells [4]; four-fold lower concentration): induced cell killing in Hep3B cells more efficiently than SQT-PUMA-BH3 | apoptosis and cell death (YOYO-3) (Hep3B cells [4]): both induced apoptosis and cell death; also recorded: kills Hep3B cells at higher concentrations | cell death (YOYO3 staining) (HepG2 cells): lead to cell death; also recorded: kills HepG2 cells | efficacy and timing of cell death, comparison (HepG2 cells): induced cell death with an increase in both efficacy and timing compared to SQT-PUMA-BH3 | PARP-1 cleavage (primary hepatocytes [5]): also induced PARP-1 cleavage in primary hepatocytes | apoptosis (YOYO-3 dye uptake and fluorescence) as a function of time (primary hepatocytes [5]; MC3-LNP-formulated): induce apoptosis | efficiency of cell killing (HeLa cells [6]): killed both HeLa cells and Hep3B cells with greater efficiency than SQT-PUMA-BH3 | efficiency of cell killing (Hep3B cells [7]; Hep3B cells, approximately 0.78 ng mRNA): killed both HeLa cells and Hep3B cells with greater efficiency than SQT-PUMA-BH3 | cell killing, dose-response curve (Hep3B cells [7]; Hep3B, 12 hours after transfection, L2K lipid nanoparticles): more efficient cell killing by SQT-Bim-BH3 at low doses

B2: SQT-Bad-BH3: mRNA (SEQ ID NO: 51, FLAG) encoding SQT scaffold with Bad BH3 domain in N-terminus (nucleic acid)
chain: ATGATCCCAAGAAACCTGTGGGCTGCACAACGCTACGGAAGAGAACTGCGCCGGATGAGCGACGAATTTGTGGACTCGTTCAAGAAGGGGGGACTCTCAGAAGCGAAGCCTGCCACCCCCGAAATCCAGGAAATCGTCGACAAGGTCAAGCCGCAGCTTGAGGAAAAGACCAACGAGACTTACGGAAAACTGGAGGCCGTGCAGTATAAGACCCAAGTGTTGGCCTCCACCAACTACTACATTAAGGTCCGCGCCGGCGATAACAAGTACATGCACCTGAAGGTGTTCAATGGTCCTCCGGGACAGAACGCGGACAGGGTGCTGACTGGCTACCAAGTGGACAAGAACAAGGACGACGAGCTGACGGGCTTCGACTACAAGGATGATGATGACAAA
modifications: FLAG tag; Synthetic SQT-BAD-BH3 mRNA sequence with FLAG epitope tag
PARP-1 cleavage, extent (HeLa cells [1]; 4 hours after transfection): also induced PARP-1 cleavage, although to a lesser extent than SQT-PUMA-BH3 or SQT-Bim-BH3 | interaction with BCL-XL by co-immunoprecipitation (BCL-XL): also able to co-immunoprecipitate BCL-XL and BCL-2, although to a lesser extent than SQT-PUMA-BH3 and SQT-Bim-BH3 | interaction with BCL-2 by co-immunoprecipitation (BCL-2): also able to co-immunoprecipitate BCL-XL and BCL-2, although to a lesser extent than SQT-PUMA-BH3 and SQT-Bim-BH3 | cell-killing activity (HeLa cells [8]): did not show cell-killing activity | apoptosis and cell death (YOYO-3) (Hep3B cells [4]): behaved similar to the empty MC3 LNP control and mRNAs encoding SQT | PARP-1 cleavage (primary hepatocytes [5]): did not | nature of combination effect with sorafenib (Hep3B cells [9]; SQT-PUMA-BH3 68 pM or SQT-Bad-BH3 550pM): synergistic effect | apoptosis (YOYO-3), combination with sorafenib vs sorafenib alone (Hep3B cells [9]; SQT-PUMA-BH3 68 pM or SQT-Bad-BH3 550pM in LNPs, increasing sorafenib tosylate): increased apoptosis of the liver cells as compared to treatment with sorafenib alone | apoptosis in combination with sorafenib [10]: neither SQT-BH3 construct, in combination with sorafenib, caused apoptosis | apoptosis (YOYO-3) in combination with either siMCL1 or sorafenib (Hep3B cells [11]): led to a marked increase in apoptosis as compared to treatment with the SQT-BH3 construct in combination with non-targeting siRNA or PBS; also recorded: synergistic pro-apoptotic effect | apoptosis (caspase 3/7) in combination with siMCL1, sorafenib or controls (primary hepatocytes [12]): did not lead to increased apoptosis as compared to treatment with the control SQT-dummy construct

B3: SQT.(nt)Mcl1.BH3.cv5: anti-MCL1 mmRNA construct, ORF amino acid SEQ ID NO: 108, nucleotide SEQ ID NO: 112, v5 tag (nucleic acid)
chain: ATGATCCCTAGGAAGGCCCTGGAGACCCTGAGGAGAGTGGGCGACGGAGTGCAGAGGAACCACGAGACCGCCTTCGGCCTGAGCGAGGCAAAGCCAGCAACACCCGAGATCCAGGAGATCGTGGATAAGGTGAAGCCCCAGCTGGAGGAGAAGACCAATGAGACATACGGCAAGCTGGAGGCCGTGCAGTATAAGACCCAGGTGCTGGCCTCCACAAACTACTATATCAAGGTGCGGGCCGGCGACAATAAGTACATGCACCTGAAGGTGTTCAACGGACCACCTGGACAGAATGCAGACAGGGTGCTGACCGGCTATCAGGTGGATAAGAACAAGGACGATGAGCTGACAGGCTTTGGCAAGCCAATCCCCAATCCTCTGCTGGGCCTGGATTCTACA
modifications: V5 tag; Synthetic SQT.(nt)Mcl1.BH3.cv5
apoptosis (YOYO-3) in combination with SQT-PUMA-BH3 (Hep3B cells [13]; listed as anti-MCL1 construct): synergistic anti-apoptotic effect in combination with SQT-PUMA-BH3 | apoptosis (YOYO-3) in combination with SQT-PUMA-BH3 (Hep3B cells [13]; listed as anti-MCL1 mRNA construct): synergistic pro-apoptotic effects
